Experimental data from paper PMC3320582, “Group A Streptococcus Secreted Esterase Hydrolyzes Platelet-Activating Factor to Impede Neutrophil Recruitment and Facilitate Innate Immune Evasion” (PLoS Pathogens, 2012).

Tested on: [H][C@@](COCCCCCCCCCCCCCCCC)(COP(=O)([O-])OCC[N+](C)(C)C)SC(C)=O
Assay: purified protein
Conditions: 20 mM Tris-HCl, pH 8.0, DTNB, room temperature, substrate concentrations corrected for early hydrolysis

In the case of “SsE (Streptococcus pyogenes serotype M1)”, the Km is reported as 7.0 µM and the kcat is reported as 69.6 s⁻¹.
